Results: the supplement of paper PMC10567573

B1: PLAGL1 (parent)
chain: EKPPSGTKEKKHQCDHCERCFYTR
B2: S100A14 (parent)
chain: KIANLGSCNDSKLEFRSFWELIGE

Variants of: B1
Assay: protein stability index of a GFP-peptide fusion (GPS, HEK-293T) (PSI 1-6); higher = more stable
Conditions: c terminus: a fixed tail appended
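Note: lentivirally expressed fusions sorted by FACS into six bins by GFP to DsRed ratio, PSI derived from sequencing read proportions per bin multiplied by bin number.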

Protein stability index of substitutions, site by site:
T7: P 3.74 | F 3.91 | A 3.44 | I 4.11 | H 3.85 | C 4.29 | S 3.54 | G 3.69 | Q 3.82 | L 3.67 | D 3.77 | V 4.06 | M 3.56 | K 3.28 | R 3.44 | Y 3.27 | N 3.6 | W 3.17 | E 3.79
G6: M 3.39 | P 4.37 | L 3.92 | R 3.07 | T 4.61 | V 4 | N 3.36 | S 3.27 | Y 2.92 | C 4.57 | I 3.17 | W 3.13 | F 3.79 | K 3.52 | E 4.09 | A 3.32 | Q 3.16 | D 3.88 | H 3.68
E9: M 2.85 | A 3.67 | K 2.9 | F 3.26 | S 3.32 | L 3 | R 2.52 | H 3.37 | Q 3.77 | P 3.52 | G 3.75 | D 3.96 | C 4.63 | W 3.08 | V 3.37 | N 3.25 | Y 2.6 | I 3.27 | T 3.51
K2: A 3.94 | F 3.44 | D 4.26 | V 3.86 | I 3.72 | M 2.93 | S 3.95 | W 3.67 | R 3.27 | P 4.08 | Y 3.17 | N 4.05 | L 3.32 | T 3.52 | G 3.44 | Q 4.12 | E 3.9 | C 3.62 | H 3.65
K8: H 3.88 | S 3.66 | A 3.37 | V 3.9 | R 3.48 | E 4.4 | Q 4.78 | N 3.77 | I 3.1 | T 3.48 | P 4.25 | G 3.29 | W 3.35 | Y 3.47 | C 4.24 | L 3.04 | M 4.27 | F 2.9 | D 4.33
P3: V 3.97 | E 3.83 | K 3.6 | Y 3.5 | N 3.94 | Q 3.8 | H 3.33 | D 4.19 | L 3.32 | M 3.41 | I 3.58 | A 4.29 | G 3.63 | F 3.54 | C 3.98 | R 3.75 | S 3.78 | W 3.13 | T 3.68
P4: Y 3.41 | L 3.28 | N 3.58 | W 2.96 | V 3.19 | G 3.99 | D 4.31 | M 3.45 | K 3.53 | I 3.57 | F 3.44 | H 3.56 | Q 3.48 | T 3.44 | S 3.99 | E 3.88 | A 3.79 | C 3.74 | R 4.31
S5: F 3.19 | P 3.54 | Q 3.42 | M 3.48 | L 3.75 | Y 3.57 | E 3.72 | T 3.34 | G 3.53 | N 3.79 | K 3.88 | I 3.97 | V 3.83 | D 4.16 | A 3.17 | C 3.72 | W 3.1 | R 3.29 | H 3.83
K10: G 3.91 | R 3.43 | S 3.96 | H 4.05 | Q 3.53 | M 3.76 | V 3.9 | C 4.3 | D 4.05 | F 3.42 | N 3.76 | T 3.78 | A 3.87 | E 4.42 | P 4.16 | L 4.04 | I 3.77
E1: R 3.02 | W 3.35 | F 2.75 | P 3.22 | M 4.15 | A 3.43 | G 3.6 | C 3.21 | S 3.11 | Q 3.87 | V 3.57 | L 3.62 | T 3.36 | K 2.98 | I 2.82 | D 3.99 | Y 3.04 | N 3.59 | H 3.54

Variants of: B2
Assay: as above
Conditions: c terminus: a fixed tail appended

Protein stability index of substitutions, site by site:
K1: N 1.41 | D 1.86 | C 1.92 | L 1.15
L13: T 2.24 | A 2.17 | K 2.04 | I 2.13 | F 2.21
R16: Y 2.44 | S 2.65 | Q 1.98 | C 1.66 | H 2.77 | D 2.11 | K 1.36
S11: A 2.38 | N 2.21 | C 2.62 | F 2.39 | D 1.89 | G 1.53 | T 1.56
L5: A 1.89 | P 2.08 | T 1.62 | R 2.25 | N 2.44 | F 2.03
A3: T 1.65 | V 2.78 | M 2.69 | N 1.54 | C 1.62 | D 1.97 | W 2.28
F15: K 1.88 | S 2.04 | E 2.65 | M 2.25 | H 2.14 | V 2.56 | A 2.06
L21: Q 1.76 | R 1.94 | I 1.54 | V 1.63 | M 1.23 | T 2
E24: Q 2.11 | W 2.1
W19: V 3.86 | A 1.89 | E 3.25 | Q 1.73 | G 2.68 | F 2.03
C8: E 1.97 | P 1.79 | N 1.68 | G 2.24 | T 1.76 | I 3.2 | K 1.55
E14: Y 2.01 | A 1.81 | W 1.08 | N 1.54 | M 2.13 | C 1.48 | F 1.89 | V 1.6 | G 1.57
S17: W 2.28 | L 2.86 | R 1.34 | Q 2.75 | I 2.45 | F 2.52
G23: R 1.45 | Q 2.19 | F 1.44 | E 2.15 | S 1.87 | M 2.25 | T 2.28
K12: W 2.47 | Y 3 | N 2.29 | R 2.56
I22: T 2.25 | W 1.67 | L 1.94 | E 3.19 | K 2.32 | N 2.61
N9: G 2.22 | S 1.08 | A 2.06 | H 1.8 | P 1.98 | R 1.47
G6: D 1.61 | Q 1.95 | M 2.51 | T 1.63 | Y 1.85 | K 3.01 | I 1.75 | S 2.1
F18: S 2.08 | P 2.27 | Q 1.98 | E 2.66 | T 1.89
N4: Y 2.32 | C 1.75 | G 2.83 | W 2.55 | K 3.15 | D 1.73
I2: E 1.77 | T 2 | Y 1.57 | L 1.8 | D 1.61 | C 1.22 | A 1.77 | W 1.88
D10: T 1.95 | A 1.66 | E 2.21 | Y 1.63 | V 2.32 | H 2.31 | N 2.39 | L 2.55
S7: W 1.89 | G 1.62 | R 2.03 | F 2.13
E20: D 2.56 | R 2.45 | V 1.73 | Q 1.62 | T 1.59
